Patent US20230270824A1, “INTERFERON-BASED CANCER TREATMENT METHOD AND PHARMACEUTICAL COMPOSITION” (XIAMEN AMOYTOP BIOTECH CO., LTD., priority 2019, published 2023)

Legend:
[1] = system: transplanted lung cancer LLC; assay: Interferon combined with gemcitabine, transplanted lung cancer LLC in mice (Example 6); format: in vivo, C57BL/6N mice
Procedure: In this example, a comparative study on the efficacy of PEG-mIFN-α4 intermittent administration (once every 48 hours for four consecutive times, then drug withdrawal for 192 hours; for 5 rounds), PEG-mIFN-α4 continuous administration (once every 48 hours for 32 consecutive times), PEG-mIFN-α4 in combination with gemcitabine (PEG-mIFN-α4: once every 48 hours for four consecutive times, then drug withdrawal for 360 hours, 4 rounds; gemcitabine: once a week) on transplanted […] LLC in mice was performed.
(§1) On the day when the tumor was inoculated, they were randomly divided into PEG-mIFN-α4 continuous administration group (N=26, female 13, male 13), PEG-mIFN-α4 intermittent administration group (N=26, female 13, male 13), the normal saline control group (N=26, female 13, male 13), the gemcitabine only group (N=26, female 13, male 13), and PEG-mIFN-α4 combined with gemcitabine group (N=26, female 13, male 13).
For the PEG-mIFN-α4 intermittent administration group, PEG-mIFN-α4 was administered once every 48 hours for 4 consecutive times, then drug withdrawal for 192 hours; for […]. For the PEG-mIFN-α4 continuous administration group, PEG-mIFN-α4 was administered once every 48 hours. For the PEG-mIFN-α4 combined with gemcitabine group, PEG-mIFN-α4 was administered once every 48 hours for 4 consecutive times, then drug withdrawal for 360 hours; for 4 rounds; and gemcitabine was administered once a week. For the gemcitabine only group, gemcitabine was administered once a week. For the saline control group, equal volume of saline was administered. Gemcitabine was injected intraperitoneally, 60 mg/kg.
SAS9.4 software was used for comparing the difference in mortality, and the statistical tests were all two-sided tests.

[2] = system: transplanted colorectal cancer CT26; assay: Interferon combined with gemcitabine, transplanted colorectal cancer CT26 in mice (Example 7); format: in vivo, BALB/c mice; conditions: 110 days observation
Procedure: In this example, a comparative study on the efficacy of PEG-mIFN-α4 intermittent administration (once every 48 hours for three consecutive times, then drug withdrawal for 144 hours; for 11 rounds), PEG-mIFN-α4 continuous administration (once every 48 hours for 55 consecutive times), PEG-mIFN-α4 in combination with gemcitabine (PEG-mIFN-α4: once every 48 hours for three consecutive times, then drug withdrawal for 240 hours, 8 rounds; gemcitabine: once a week) on transplanted colorectal cancer CT26 in mice was performed.
The anticancer agent is Gemcitabine (Jiangsu HAOSEN Pharmaceutical).
as §1, with “(N=24,” for “(N=26,”, “12,” for “13,”, “12),” for “13),”, “12).” for “13).”
Gemcitabine was injected intraperitoneally, 60 mg/kg. […] For the PEG-mIFN-α4 intermittent administration group, PEG-mIFN-α4 was administered once every 48 hours for three consecutive times, then drug withdrawal for 144 hours; for 11 rounds. For the PEG-mIFN-α4 continuous administration group, PEG-mIFN-α4 was administered once every 48 hours. For the PEG-mIFN-α4 combined with gemcitabine group, PEG-mIFN-α4 was administered once every 48 hours for three consecutive times, then drug withdrawal for 240 hours; for 8 rounds; and gemcitabine was administered once a week. For the gemcitabine only group, gemcitabine was administered once a week. For the saline control group, equal volume of saline was administered.
Survival analysis was performed for all groups to compare the differences between groups.

B1: PEG-mIFN-α4: deglycosylated recombinant mouse interferon α4 modified with 40 kD Y-type polyethylene glycol (YPEG-NHS); SEQ ID NO: 6 (protein)
chain: CDLPHTYNLGNKRALTVLEEMRRLPPLSCLKDRKDFGFPLEKVDNQQIQKAQAILVLRDLTQQILNLFTSKDLSATWNATLLDSFCNDLHQQLNDLKACVMQEPPLTQEDSLLAVRTYFHRITVYLRKKKHSLCAWEVIRAEVWRALSSSTNLLARLSEEKE
modifications: 40 kD Y-type PEG; deglycosylated; amino acid sequence of peginterferon murine 4
Mortality ([1]; continuous administration (1 μg/mouse s.c. once every 48 hours), 45 days after tumor inoculation): 100% | Mortality ([1]; continuous administration (once every 48 hours), Day 64 post tumor inoculation): 100% | Mortality ([1]; intermittent administration (every 48 h x4, withdrawal 192 h), 45 days after tumor inoculation): 34.6% | Mortality ([1]; intermittent administration (every 48 h x4, withdrawal 192 h), Day 64 post tumor inoculation): 84.6% | Mean survival period (days post tumor inoculation) ([2]; continuous administration: once every 48 hours, 55 times): 53.5 days | Mean survival period (days post tumor inoculation) ([2]; intermittent administration: 1 μg/mouse every 48 h x3, withdrawal 144 h, 11 rounds): 89.0 days
